Assay results from the supplement of paper PMC7877785.
± gives the uncertainty stated by the source.

Experiment: self-splicing fitness, log relative to wild type (ln ratio); higher = more splicing; Tetrahymena group I intron in knt gene, E. coli kanamycin selection, DiMSum; sequences stand for … in CUCUCU…GGAGGGAAAAGUUAUCAGGCAUGCACCUGGUAGCUAGUCUUUAAACCAAUAGAUUGCAUCGGUUUAAAAGGCAAGACCGUCAAAUUGCGGGAAAGGGGUCAACAGCCGUUCAGUACCAAGUCUCAGGGGAAACUUUGAGAUGGCCUUGCAAAGGGUAUGGUAAUAAGCUGACGGACAUGGUCCUAACCACGCAGCCAAGUCCUAAGUCAACAGAUCUUCUGUUGAUAUGGAUGCAGUUCACAGACUAAAUGUCGGUCGGGGAAGAUGUAUUCUUCUCAUAAGAUAUAGUCGGACCUCUCCUUAAUGGGAGCUAGCGGAUGAAGUGAUGCAACACUGGAGCCGCUGGGAACUAAUUUGUAUGCGAAAGUAUAUUGAUUAGUUUUGGAGUACUCGUGGUCG
Procedure, shortened: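 Pooled colonies went to amplicon sequencing on an Illumina HiSeq 2500 after six replicate transformations. The plates were LB agar with 100 μg/mL carbenicillin, 50 μM IPTG and 0.2% rhamnose, with or without 25 μg/mL kanamycin, incubated overnight at 37°C or 30°C. The E. coli BL21(DE3) library had all eight P1ex-region intron nucleotides randomised, the intron placed in the knt kanamycin-resistance gene on pET-22b(+). DiMSum fitness is the error-weighted combination of replicate fold changes, kanamycin against none, normalised to wild type.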

Row | Sequence | self-splicing fitness (ln) (30 °C) | self-splicing fitness (ln) (37 °C)
1 | GGGUAGCAAUAUUACGUGUC | -2.16 ± 0.18 | -0.684 ± 0.15
2 | GGGUAGCAAUAUUACGUUAC | – | -4.17 ± 0.46
3 | GGGUAGCAAUAUUACGUUCG | -0.742 ± 0.065 | 0.339 ± 0.086
4 | GGUAAGCAAUAUUACGAACA | -0.0165 ± 0.19 | -0.383 ± 0.18
5 | GGUAAGCAAUAUUACGAACG | -0.0623 ± 0.11 | -0.0489 ± 0.12
6 | GGUAAGCAAUAUUACGAACU | -1.25 ± 0.25 | -1.67 ± 0.36
7 | GGUAAGCAAUAUUACGACGA | -0.849 ± 0.098 | 0.225 ± 0.098
8 | GGUAAGCAAUAUUACGAGGA | – | -1.84 ± 0.45
9 | GGUAAGCAAUAUUACGAGUU | -1.56 ± 0.097 | -0.413 ± 0.12
10 | GGUAAGCAAUAUUACGAUAC | -0.265 ± 0.12 | -0.608 ± 0.16
11 | GGUAAGCAAUAUUACGCAGA | – | -1.84 ± 0.47
12 | GGUAAGCAAUAUUACGCAGG | -2.05 ± 0.16 | -1.29 ± 0.15
13 | GGUAAGCAAUAUUACGCGAA | -1.27 ± 0.15 | -1.15 ± 0.16
14 | GGUAAGCAAUAUUACGGACC | -0.973 ± 0.43 | –
15 | GGUAAGCAAUAUUACGGAUG | -3.57 ± 0.34 | -2.09 ± 0.18
16 | GGUAAGCAAUAUUACGGCGC | 0.369 ± 0.14 | 0.841 ± 0.18
17 | GGUAAGCAAUAUUACGGGAA | -2.54 ± 0.39 | -2.06 ± 0.32
18 | GGUAAGCAAUAUUACGGGAC | -2.69 ± 0.29 | -1.27 ± 0.2
19 | GGUAAGCAAUAUUACGGGAG | – | -2.88 ± 0.34
20 | GGUAAGCAAUAUUACGGGCA | -0.438 ± 0.082 | 0.103 ± 0.1
21 | GGUAAGCAAUAUUACGGUCG | -0.945 ± 0.066 | -0.215 ± 0.1
22 | GGUAAGCAAUAUUACGUACG | -0.395 ± 0.11 | -0.415 ± 0.12
23 | GGUAAGCAAUAUUACGUCGA | – | -0.708 ± 0.25
24 | GGUAAGCAAUAUUACGUGAU | -1.64 ± 0.099 | -1.68 ± 0.12
25 | GGUAAGCAAUAUUACGUUUG | – | -2.56 ± 0.21
26 | GGUCAGCAAUAUUACGAAGU | -0.729 ± 0.076 | -0.336 ± 0.1
27 | GGUCAGCAAUAUUACGAGAA | -1.23 ± 0.47 | -2.01 ± 0.38

Row | Sequence | self-splicing fitness (ln) (30 °C) | self-splicing fitness (ln) (37 °C)
28 | GGUCAGCAAUAUUACGAUCC | – | -0.912 ± 0.18
29 | GGUCAGCAAUAUUACGAUCU | -1.8 ± 0.17 | -1.93 ± 0.24
30 | GGUCAGCAAUAUUACGCCAA | -1.17 ± 0.25 | -2.06 ± 0.22
31 | GGUCAGCAAUAUUACGCCGA | – | -2.65 ± 0.48
32 | GGUCAGCAAUAUUACGCUGU | -3.34 ± 0.21 | -1.62 ± 0.18
33 | GGUCAGCAAUAUUACGGAAG | -2.27 ± 0.2 | -1.58 ± 0.23
34 | GGUCAGCAAUAUUACGGACG | -0.915 ± 0.11 | 0.0247 ± 0.16
35 | GGUCAGCAAUAUUACGGCCA | -2.33 ± 0.19 | -0.589 ± 0.17
36 | GGUCAGCAAUAUUACGGUUU | -0.421 ± 0.074 | 0.264 ± 0.099
37 | GGUCAGCAAUAUUACGUAAA | 0.301 ± 0.14 | 0.672 ± 0.18
38 | GGUCAGCAAUAUUACGUAAU | -0.42 ± 0.11 | 0.68 ± 0.14
39 | GGUCAGCAAUAUUACGUAGA | -0.689 ± 0.081 | -0.164 ± 0.096
40 | GGUCAGCAAUAUUACGUAGG | -2.33 ± 0.15 | -1.84 ± 0.18
41 | GGUCAGCAAUAUUACGUCUU | 0.322 ± 0.078 | 0.402 ± 0.089
42 | GGUCAGCAAUAUUACGUUAU | -0.97 ± 0.092 | -0.158 ± 0.1
43 | GGUCAGCAAUAUUACGUUUC | 0.000828 ± 0.13 | -0.437 ± 0.14
44 | GGUGAGCAAUAUUACGAAAC | -2.41 ± 0.24 | -1.02 ± 0.27
45 | GGUGAGCAAUAUUACGAGGU | -2.22 ± 0.29 | -1.68 ± 0.27
46 | GGUGAGCAAUAUUACGAUAU | -2.31 ± 0.2 | -1.83 ± 0.23
47 | GGUGAGCAAUAUUACGAUCA | -1.24 ± 0.13 | -0.356 ± 0.15
48 | GGUGAGCAAUAUUACGCAUG | -1.48 ± 0.11 | -0.697 ± 0.15
49 | GGUGAGCAAUAUUACGCAUU | -1.28 ± 0.25 | -1.89 ± 0.34
50 | GGUGAGCAAUAUUACGCGAU | -3.7 ± 0.46 | –
51 | GGUGAGCAAUAUUACGCUAG | – | -1.65 ± 0.45
52 | GGUGAGCAAUAUUACGCUCG | – | -1.37 ± 0.4
53 | GGUGAGCAAUAUUACGCUGG | -2.87 ± 0.19 | -1.12 ± 0.16
54 | GGUGAGCAAUAUUACGCUGU | -3.68 ± 0.34 | -1.64 ± 0.27

Row | Sequence | self-splicing fitness (ln) (30 °C) | self-splicing fitness (ln) (37 °C)
55 | GGUGAGCAAUAUUACGGACA | -1.48 ± 0.17 | -0.688 ± 0.16
56 | GGUGAGCAAUAUUACGGCGA | -1.1 ± 0.12 | -1.39 ± 0.14
57 | GGUGAGCAAUAUUACGGCGG | -3.44 ± 0.23 | -1.73 ± 0.35
58 | GGUGAGCAAUAUUACGGGAA | -1.89 ± 0.3 | -2.5 ± 0.48
59 | GGUGAGCAAUAUUACGUAAA | -2.79 ± 0.3 | -1.45 ± 0.31
60 | GGUGAGCAAUAUUACGUAAC | -2.35 ± 0.43 | -1.22 ± 0.28
61 | GGUGAGCAAUAUUACGUUAA | -1.89 ± 0.18 | -1.09 ± 0.24
62 | GGUGAGCAAUAUUACGUUUA | -3.01 ± 0.28 | -1.44 ± 0.18
63 | GGUUAGCAAUAUUACGAAUC | -1.76 ± 0.16 | -1.06 ± 0.24
64 | GGUUAGCAAUAUUACGCAAG | -2.45 ± 0.16 | -1.01 ± 0.12
65 | GGUUAGCAAUAUUACGCGAG | -1.9 ± 0.2 | -0.416 ± 0.13
66 | GGUUAGCAAUAUUACGCUCC | -1.71 ± 0.39 | 0.76 ± 0.48
67 | GGUUAGCAAUAUUACGCUGC | -1.38 ± 0.26 | –
68 | GGUUAGCAAUAUUACGGACA | -0.743 ± 0.12 | 0.373 ± 0.15
69 | GGUUAGCAAUAUUACGGCCG | -0.999 ± 0.19 | -0.019 ± 0.25
70 | GGUUAGCAAUAUUACGGGAU | -3.13 ± 0.26 | -1.4 ± 0.24
71 | GGUUAGCAAUAUUACGGGCU | -3.26 ± 0.41 | -1.68 ± 0.32
72 | GGUUAGCAAUAUUACGGGUG | -1.7 ± 0.1 | -1.08 ± 0.12
73 | GGUUAGCAAUAUUACGUAGG | -2.51 ± 0.18 | -1.03 ± 0.14
74 | GGUUAGCAAUAUUACGUGCA | -0.869 ± 0.19 | -0.121 ± 0.18
75 | GGUUAGCAAUAUUACGUGGA | -2.72 ± 0.2 | -1.08 ± 0.14
76 | GGUUAGCAAUAUUACGUUCA | 0.228 ± 0.14 | -0.557 ± 0.13
77 | GGUUAGCAAUAUUACGUUUA | -1.5 ± 0.096 | -0.992 ± 0.088
78 | GGUUAGCAAUAUUACGUUUU | -1.03 ± 0.055 | -0.945 ± 0.083
79 | GUAAAGCAAUAUUACGAAAC | -1.83 ± 0.13 | -0.6 ± 0.13
80 | GUAAAGCAAUAUUACGAACU | -0.845 ± 0.11 | -0.0974 ± 0.14
